The values below are quoted from earlier work in patent US7101894B2 (priority 2001, dated 2006).

Broadly, the Ki is the equilibrium dissociation constant of an inhibitor or competing ligand from its target.

The target in the data set is CMV US28 (Human cytomegalovirus, UniProt P69332). Conditions: binding of Fractalkine to US28.
Sequence of CMV US28 (P69332 whole entry): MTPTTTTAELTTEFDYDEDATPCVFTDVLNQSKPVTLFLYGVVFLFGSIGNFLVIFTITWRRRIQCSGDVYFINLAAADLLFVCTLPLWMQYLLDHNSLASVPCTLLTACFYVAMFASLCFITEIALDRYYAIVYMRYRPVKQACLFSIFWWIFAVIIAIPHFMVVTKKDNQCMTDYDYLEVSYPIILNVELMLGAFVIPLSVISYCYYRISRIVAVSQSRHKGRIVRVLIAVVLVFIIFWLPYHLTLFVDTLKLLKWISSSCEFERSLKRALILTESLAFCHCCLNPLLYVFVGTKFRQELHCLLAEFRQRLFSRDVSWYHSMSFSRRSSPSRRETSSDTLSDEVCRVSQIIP

B1: Fractalkine: the CX3C chemokine, binds US28; used 125I-labeled as radioligand (protein, UniProt P78423 25-397, looked up)
Fractalkine: QHHGVTKCNITCSKMTSKIPVALLIHYQQNQASCGKRAIILETRQHRLFCADPKEQWVKDAMQHLDRQAAALTRNGGTFEKQIGEVKPRTTPAAGGMDESVVLEPEATGESSSLEPTPSSQEAQRALGTSPELPTGVTGSSGTRLPPTPKAQDGGPVGTELFRVPPVSTAATWQSSAPHQPGPSLWAEAKTSEAPSTQDPSTQASTASSPAPEENAPSEGQRVWGQGQSPRPENSLEREEMGPVPAHTDAFQDWGPGSMAHVSVVPVSSEGTPSREPVASGSWTPKAEEPIHATMDPQRLGVLITPVPDAQAATRRQAVGLLAFLGLLFCLGVAMFTYQSLQGCPRKMAGEMAEGLRYIPRSCGSNSYVLVPV
modifications: 125I label
notes: used 125I-labeled as radioligand
B1: the Ki is around 0.05 nM.
